Measured values: patent US20120020971A1

B1: MAB8 (antibody, V domains shown)
VH: EVQLVESGGGLVKPGGSLRLSCAASGFTFSTYTMSWVRQAPGQGLEWVSSITRTSSNIYYADSVEGRFTISRDNAKNSLYLQMHSLRVEDTAVYYCARISGVVGPVPFDYWGQGTLITVSS
VL: DIQMTQSPSSLSASVGDRVTITCRASQTISKYLNWYQQKPGRAPKLLIYSASSLQSGVPSRFTGSGSGTDFTLTITSLQPEDFATYYCQQSYRPSQITFGPGTKVDIKR
B2: MAB53 (antibody, V domains shown)
VH: QVQLVQSGAEVRKPGSSVKVSCKVSGGIIRKYAINWVRQAPGQGLEWMGGIIAIFNTANYAQKFQGRVTITADESTSTVYMELSSLRSEDTALYYCARGMNYYSDYFDYWGQGSLVTVSP
VL: EIVLTQSPGTLSLSPGERATLSCRASQSVRSNNLAWYQHKPGQAPRLLIFGASSRATGIPDRFSGSGSGTDFTLTISRLEPEDFAVYYCQQYGSSPALTFGGGTKVEIKR

Experiments:
Test in all cases: FortéBio biosensor (biolayer interferometry), HA0 protein
[1] = biological target: HA0 protein from the H3 clade (influenza A virus, H3 clade (strain not stated))
[2] = biological target: HA0 protein from the H5 clade (influenza A virus, H5 clade (strain not stated))
[3] = biological target: HA0 protein of the H1 clade (influenza A virus, H1 clade (strain not stated))
[4] = biological target: HA0 protein from the H7 clade (influenza A virus, H7 clade (strain not stated))
[5] = biological target: HA0 protein from the H9 clade (influenza A virus, H9 clade (strain not stated))

Binder	Kd [1] [nM]	Kd [2] [nM]	Kd [3] [nM]	Kd [4] [nM]	Kd [5] [nM]
B1	16	0.2	9	–	–
B2	–	6	0.06	0.07	0.03
